The record followed here is paper doi:10.1101/2021.08.28.457928 (bioRxiv, 2021).

B4: isolated FERM domain of human SNX27 (domain or fragment, UniProt Q96L92 269-531, looked up)
chain: YNGVSDVELRVALPDGTTVTVRVKKNSTTDQVYQAIAAKVGMDSTTVNYFALFEVISHSFVRKLAPNEFPHKLYIQNYTSAVPGTCLTIRKWLFTTEEEILLNDNDLAVTYFFHQAVDDVKKGYIKAEEKSYQLQKLYEQRKMVMYLNMLRTCEGYNEIIFPHCACDSRRKGHVITAISITHFKLHACTEEGQLENQVIAFEWDEMQRWDTDEEGMAFCFEYARGEKKPRWVKIFTPYFNYMHECFERVFCELKWRKENIFQM
notes: FERM domain of human SNX27; The AlphaFold2 modelling took the FERM domain as residues 269 to 531; also called hSNX27_(FERM)

Holding throughout (details): both partners purified
One assay concerns the target T1, full-length mouse SNX27 (mouse, UniProt Q3UHD6 1-539).
T1 construct: SNX27, mouse, full length; Vector pMCSG7, ligation independent cloning; also called mSNX27FL
Put plainly: ITC; 800 μM SNX1 or SNX2 peptide titrated into 20 μM full-length mouse SNX27; 25 °C; 50 mM HEPES pH 7.5, 200 mM NaCl, 5% glycerol, 1 mM β-ME with 1:10 peptide buffer (100 mM Tris-HCl pH 10.6); single-site model. In general terms: ITC needs no label: the signal is the heat of the interaction.

Assay [1] has as its target B4. Put plainly: ITC; 800 μM hSNX27 FERM titrated into 20 μM GST-mSNX1(1-139) or His-SNX1FL; 25 °C; 50 mM HEPES pH 7.5, 200 mM NaCl, 5% glycerol, 1 mM β-ME; single-site model.
In assay [2] the target is T2, full-length mouse SNX1 with an N-terminal His-tag (mouse, UniProt Q9WV80 1-522).
T2 construct: SNX1, mouse, full length; Vector pMW172Kan; also called mSNX1FL; His-SNX1FL; source: E. coli BL21 CodonPlus (DE3), purified (TALON or Ni-NTA, SEC); not shown: His-tag, N-terminal, kept
The assay is described as above.

A further assay deals with T3, human SNX27(K496D) (human, UniProt Q96L92 1-541, K496D).
T3 construct: SNX27, human, full length; the text prints R496D, the methods and the legend K496D; also called hSNX27 K496D; SNX27(R496D)
Put plainly: ITC; 600 μM SNX1(75-92) peptide titrated into 20 μM hSNX27 wild type or single-site mutant; 25 °C; 50 mM HEPES pH 7.5, 200 mM NaCl, 5% glycerol, 1 mM β-ME; single-site model.

The target in assay [3] is T4, human SNX27 full length, wild type (human, UniProt Q96L92 1-541).
T4 construct: SNX27, human, full length; also called hSNX27FL; hSNX27 WT
The assay is described as above.

B1: SNX2_(16-33) peptide (peptide)
peptide: TDFEDLEDGEDLFTSTVS
notes: SNX2, human, residues 16 to 33; also called SNX2 16 to 33; first aDLF motif of SNX2; source: synthetic peptide (Genscript)
In the case of B1, the Kd (as a rule, the constant that tells how readily two partners part at equilibrium) with full-length mouse SNX27 was found to be 37.8 µM.

B2: GST-mSNX1(1-139) (domain or fragment, mouse, UniProt Q9WV80 1-139, looked up)
chain: MASGGGGCSASERLPPPFPGMDPESEGAAGASEPEAGDSDTEGEDIFTGAAAATKPQSPKKTTSLFPIKNGSKENGIHEDQDQEPQDLFADATVELSLDSTQNNQKTMPGKTLTSHSPQEATNSPKPQPSYEELEEEEQ
notes: SNX1, mouse, residues 1 to 139; Vector pGEX4T-2, thrombin-cleavable GST; named GST-mSNX1(1-139) in the ITC; also called N-terminal extension of mouse SNX1; source: E. coli BL21 CodonPlus (DE3), purified (glutathione Sepharose, SEC); not shown: GST, N-terminal, kept
B2 yielded a Kd in assay [1] of 39.1 µM.

B3: SNX2_(62-82) peptide (peptide)
peptide: TEVVLDDDREDLFAEATEEVS
notes: SNX2, human, residues 62 to 82; also called SNX2 62 to 82; second aDLF motif of SNX2; source: synthetic peptide (Genscript)
Take B3: the Kd in the assay with full-length mouse SNX27 is 22.6 µM.

Regarding B4, binding in assay [2] was characterised by a dissociation constant (Kd) of 41 µM.

B5: SNX1_(75-92) peptide (peptide)
peptide: NGIHEEQDQEPQDLFADA
notes: SNX1, human, residues 75 to 92; also called SNX1 75 to 92; hSNX1_(75-92); source: synthetic peptide (Genscript)
Turning to B5, the Kd came out at 56.4 µM with human SNX27(K496D), 12.7 µM in assay [3] and 13.3 µM in the assay with full-length mouse SNX27.

B6: SNX1_(35-51) peptide (peptide)
peptide: EAGDSDTEGEDIFTGAA
notes: SNX1, human, residues 35 to 51; also called first aDLF motif of human SNX1; source: synthetic peptide (Genscript)
B6: the Kd with full-length mouse SNX27 was 33.4 µM.
